Conditions: Escherichia coli; pH 7; Thermal; CD; Sodium phosphate 10 mM; NaCl 350 mM; whole UniProt chain shown

B1: Regulatory protein rop wild type, P03051 (protein)
chain: MTKQEKTALNMARFIRSQTLTLLEKLNELDADEQADICESLHDHADELYRSCLARFGDDGENL
  Tm: 68.7 °C

Reference: FireProtDB (doi:10.1038/nsb0196-54)
